The text below walks through data of patent publication US20250205329A1.

Common to all, as to experiment: BLI (Gator), antibody on protein A probe, F mutant supernatant held 1 h at 60° C.
Experiment [1] concerns the target RSV F protein mutant YK001Ag403 (RSV A) (UniProt P12568).
In experiment [2] the target is RSV F protein mutant YK001Ag407 (RSV A) (RSV A) (UniProt P11209).
For experiment [3], the target named is RSV F protein mutant YK001Ag399 (RSV A) (RSV A) (UniProt P11209).
Experiment [4] addresses RSV F protein mutant YK001Ag402 (RSV A) (UniProt P12568).
Experiment [5] has as its target RSV F protein mutant YK001Ag400 (RSV A) (UniProt P12568).
Experiment [6] has as its target RSV F protein mutant YK001Ag401 (RSV A) (RSV A) (UniProt P11209).
Experiment [7] has as its target DS-CavI (positive control) RSV F protein.
Experiment [8] deals with RSV F protein mutant YK001Ag411 (AVQ93588.1, RSV B) (RSV B).
For experiment [9], the target named is RSV F protein mutant YK001Ag222 (RSV A) (UniProt P12568).
Experiment [10] concerns the target RSV F protein mutant YK001Ag404 (RSV A) (RSV A) (UniProt P11209).
For experiment [11], the target named is RSV F protein mutant YK001Ag410 (AHV80758, RSV B) (RSV B).
Experiment [12] has as its target SC-TM (positive control) RSV F protein.
For experiment [13], the target named is RSV F protein mutant YK001Ag406 (RSV A) (RSV A) (UniProt P11209).

monoclonal antibody D25: the Activity of antibody D25 after 1 h at 60° C. (%) amounted to 89.7% in [1]; 77.2% in [2]; 80.8% in experiment [3]; 84% in experiment [4]; 15.6% in [5]; 20.8% in experiment [6]. Also, the Activity of antibody D25 after 1 h at 60° C. (%) in experiment [7] came out at 103%; in [8] it was 91.4%; in experiment [9] it was 5.8%; in experiment [10] it was 75.4%; in [11], 88.7%; in experiment [12], 21%. The substance also showed an Activity of antibody D25 after 1 h at 60° C. (%) in [13] of 60.4%.

As for monoclonal antibody AM14, the Activity of antibody AM14 after 1 h at 60° C. (%) in experiment [1] stood at 81%; in experiment [2], 52.6%; in experiment [3], 99.8%; in experiment [4], 28.6%; in [5] it was 1.4%; in [6], 2.2%. Also, the Activity of antibody AM14 after 1 h at 60° C. (%) in [7] came to 9.9%; in [8] it was 69.5%; in experiment [9], 1.1%; in [10], 60.9%; in experiment [11], 67.7%; in experiment [12], 1.3%. For the same substance, the Activity of antibody AM14 after 1 h at 60° C. (%) in experiment [13] came out at 45.5%.
